Tests used:
KSRP = biological target: T1, KSRP (UniProt Q92945 1-711); test: competition
T1 sequence: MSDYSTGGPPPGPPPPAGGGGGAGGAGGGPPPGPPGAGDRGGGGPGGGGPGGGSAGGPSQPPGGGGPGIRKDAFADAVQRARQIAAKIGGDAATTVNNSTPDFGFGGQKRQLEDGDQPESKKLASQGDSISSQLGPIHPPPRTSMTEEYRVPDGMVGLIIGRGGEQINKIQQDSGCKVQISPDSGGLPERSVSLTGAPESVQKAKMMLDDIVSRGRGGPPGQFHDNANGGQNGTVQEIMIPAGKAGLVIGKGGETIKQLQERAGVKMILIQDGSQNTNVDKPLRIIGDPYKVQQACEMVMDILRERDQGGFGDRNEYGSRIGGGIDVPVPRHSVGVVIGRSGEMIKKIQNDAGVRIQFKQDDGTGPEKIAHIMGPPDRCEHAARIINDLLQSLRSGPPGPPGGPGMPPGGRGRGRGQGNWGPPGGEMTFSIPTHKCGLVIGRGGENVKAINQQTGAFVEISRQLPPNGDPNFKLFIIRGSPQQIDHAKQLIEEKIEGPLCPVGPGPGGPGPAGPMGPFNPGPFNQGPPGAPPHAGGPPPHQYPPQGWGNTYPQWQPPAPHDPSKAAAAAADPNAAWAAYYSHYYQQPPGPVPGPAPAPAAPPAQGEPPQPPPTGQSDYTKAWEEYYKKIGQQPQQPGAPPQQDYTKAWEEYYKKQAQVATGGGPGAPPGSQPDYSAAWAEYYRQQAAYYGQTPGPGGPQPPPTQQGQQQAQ

hnRNP A1 UP1 fragment = hnRNP A1 UP1 fragment (UniProt P09651 1-196); test: competition
Sequence of hnRNP A1 UP1 fragment (P09651 1-196): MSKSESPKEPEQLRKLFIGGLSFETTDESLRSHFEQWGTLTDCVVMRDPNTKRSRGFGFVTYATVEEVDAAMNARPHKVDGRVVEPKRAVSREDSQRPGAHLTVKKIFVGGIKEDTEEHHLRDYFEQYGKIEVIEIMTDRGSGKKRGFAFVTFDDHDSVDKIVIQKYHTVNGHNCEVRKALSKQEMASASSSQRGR

GUUGUAUAGUUUUAGGGUCACACCCACCACUGGGAGAUAACUAUACAAUC (structured_RNA) [let-7a-1 loop]: binds (KSRP); binds (hnRNP A1 UP1 fragment).
